Data from US20250188153A1 (UNIVERSITY OF GEORGIA RESEARCH FOUNDATION, published 2025).

Legend:
Assay in all cases: cell-based or functional assay
[1] = target: hMPV F protein of hMPV TN/93-32 (genotype B) (human metapneumovirus)
[2] = target: T1, hMPV F protein of hMPV CAN/97-83 (genotype A) (human metapneumovirus, UniProt Q6WB98 19-539)
[3] = target: T1, hMPV F protein of hMPV CAN/97-83 …; remark: listed apart in the source

T1 sequence (Q6WB98 19-539): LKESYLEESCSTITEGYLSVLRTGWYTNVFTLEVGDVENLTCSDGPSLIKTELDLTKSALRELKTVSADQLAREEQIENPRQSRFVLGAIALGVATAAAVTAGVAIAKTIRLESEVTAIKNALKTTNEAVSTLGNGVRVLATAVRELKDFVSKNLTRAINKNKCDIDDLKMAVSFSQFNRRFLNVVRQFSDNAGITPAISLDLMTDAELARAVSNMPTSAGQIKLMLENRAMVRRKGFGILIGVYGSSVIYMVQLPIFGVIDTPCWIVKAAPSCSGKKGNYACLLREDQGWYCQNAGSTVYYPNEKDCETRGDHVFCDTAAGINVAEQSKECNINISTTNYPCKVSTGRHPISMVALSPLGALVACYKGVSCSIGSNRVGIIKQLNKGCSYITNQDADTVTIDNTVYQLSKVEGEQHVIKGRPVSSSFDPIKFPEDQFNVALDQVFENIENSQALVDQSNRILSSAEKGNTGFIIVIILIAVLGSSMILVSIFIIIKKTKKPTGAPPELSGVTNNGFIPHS

Binder | IC50, plaque-reduction neutralization of hMPV TN/93-32 [1] [µg/mL] | IC50, plaque-reduction neutralization of hMPV CAN/97-83 [2] [µg/mL] | fold lower neutralization IC50 than against hMPV TN/93-32 [3] [fold] | neutralizing activity, plaque-reduction assay [3] [ng/mL]
MPV478 (antibody, V domains shown) VH: EVQLVQSGAEVKKPGASVKVSCNASGYTFTGYYIHWVRQAPGQGLEWMGWINPRSGGTNYAQKFQGRVTLTRDTSITTAYMDVTRLRPDDTAVYYCATTREGIVLMPRGRGDDALDTWGQGTTVIVSS VL: DIVMTQSPVSLTVSLGERATINCKSSQSVLSTSNNENYLAWYQQKPGQPPNLLIYWASTRESGVPDRFSGSGSGTDFTLTISSLQAEDVAVYYCQQYFATPITFGPGTKVDVK | 0.068 | 0.21 | – | –
MPV86 (antibody, V domains shown) VH: QVQLVQSGAEVKKPGSSVKVSCKASGDTFNDVALSWVRQAPGQGLEWLGGIIPFFGTANYAQRFQDRVTITADASTSTAYLELGGLRSEDTAVYYCARGWSCRNITCFMMGYYFYIMDVWGQGTLVTVSS VL: LSLSPGERATLSCRASQSVGNFLAWYQQKPGQTPRLLIQDASNRATGIPARFSGTGSGTDFTLTISSLEPEDFAVYYCQQRSNWPPTFGPGTKVDIK | 1.8 | 0.057 | ≥ 20 | –
MPV456 (antibody, V domains shown) VH: QVQLQESGPGVVKPSGTLSLTCGVSGGSISSSYWWSWVRQPPGKGLEWIGEIYHSGSTNYNPSLKRRVTISVDKSKNQFSLKVTSVTAADTAVYYCARGPIQYYDILTEERVGYCDYWGQGTLVTVSS VL: TLSASVGDRVTITCRASQSISSWLAWFQQKPGKAPKLLIYKTSSLESGVPSRFSGSGSGTEFTLTISSLQPDDFATYYCQEYNSYSRTFGQGTKVEIK | 0.81 | 0.45 | – | –
MPV489 (antibody, V domains shown) VH: EVQLLESGGGLVQPGGSLRLSCAASKFTFNNYEMNWLRQAPGKGLEWVSSISSSGDTIHNADSVKGRFIISRDNAKNSLHLQMNGLRAEDTAVYYCARAGSGWAYDAFDIWGLGTMVTVSS VL: LSASVGDRVTITCRASQSISSFLNWYQQKPGKAPKLLMYAASSLPVGVPSRFSGSGSGPEYTLTISNLQPEDFATYYCQQGYSSPPTFGGGTRLEVK | 2.3 | 3.6 | – | –
MPV487 (antibody, V domains shown) VH: EVQLLESGGGLVQPGRSLRLSCTASGFTFDDYAMHWVRQLPGKGLEWVSGISWNSDNIGYADSVKGRFTISRDNGKNSLYLQMNSLRAEDTAFYYCAKDVRIDYDLLIGHIDYWGPGTLVTVSS VL: TQSPVTLSLSPGERATLSCRASQSFGGYCAWYQQKPGQSPRLLIYDASNRATGVPARFSGSGSGTDFTLTISSLEPEDSAVYFCQQRGNWPIFGQGTRLEI | 0.012 | 0.003 | – | < 20
MPV464 (antibody, V domains shown) VH: QVQLQESGPGLVKPSQTLSLTCTVSGGSVRGGGDYWSWIRRPPGKGLEWIGHIYNSGTTFYNPSLKSRVTISIDTSKNQFSLKLRSVTAADTAVYYCGRVGSRATGLPDWIDPWGQGTLVTVSS VL: SYELTQPPSVSVSPGQTATITCSGTNLGAKYSCWYQQKPGQSPVLVIFQDNKRASGIPARFSASTSGDTATLTISGTQVMDEADYFCQAWDSRTAVFGGGTTLTVL | 0.4 | 0.14 | – | –
MPV482 (antibody, V domains shown) VH: EVQLVQSGGGVVQPGRSLRLSCAASGFTFSSFAMHWVRQAPGKGLEWVALISDDGNNKYHADSVKGRFTISRDSSKNTLYLQMNSLRGEDTAVYYCARDGSVVGAAAHCDHWGQGTLVTVSS VL: SYELTQPPSVSVSPGQTARITCSGDALPNQCAYWYQQKPGLAPVLLIYKDKERPSGIPERFSGSISGTTVTLTISGVQAEDEADYYCQSSDSSSTVVFGGGTKLTVL | 0.047 | 0.014 | – | < 20
MPV488 (antibody, V domains shown) VH: EVQLVQSGFEVKKPGASVKVSCKASGYNFNNYGISWVRQAPGQGLEWMGWISAYTGNTNEAQKFQGRVSMTTDTSTSTAYMEVRSLRSDDTAVYYCARDIGSSMFYSYFYGMDVWGQGTTVIVSS VL: SLSVSLGERATINCKSSESVLYNSNNENYLDWYQQKPGQPPKLLIYWASTRASGVPDRFSGSASGTDFTLTISSLQAEDVAVYYCQQYYSTPRTFGQGTKVEIK | 2.4 | 0.018 | ≥ 20 | < 20
MPV481 (antibody, V domains shown) VH: EVQLVQSGGGLVKPGGSLRLSCAASGLPFNNAWMNWVRQAPGKGLEWVGRIKSKIDGGTTEYAAPVKGRFTISRDDSENTLYLQMNSLRTEDTAVYYCTTEYYALLSGNYSDCWGQGTLVTVSS VL: DIVMTQSPFSLSLSPGERATLSCRASQSIKRAYLGWYQQKPGQAPRLLIYGASNRATGIPDRFSGSGSGTDFTLTISRLEPEDFAVYYCQQYGDSPGGSFGQGTKLEIR | 0.26 | 0.096 | – | –
MPV454 (antibody, V domains shown) VH: EVQLVESGGGLVKPGGSLRLSCSTSGFVFSSYAMHWVRQAPGKGLEHVSAISSTGDNTHYADSVKGRFTISRDNSRGRLYLQMTSVRPEDAALYYCVKDLYSGRFYYFLDDWGQGTRIIVSS VL: DIQVTQSPSSLSASVGDRVTISCRASQNISNYLNWFQQRPGKAPKLLIYVASTLQSGAPSRFSGSGSGTDFTLTITDLQPEDFATYYCQQSYNTPPITFGQGTRLEIK | 0.025 | 0.002 | – | < 20
MPV483 (antibody, V domains shown) VH: EVQLVQSGAELKKPGSSVKVSCKASGDTFSNYAISWVRQAPGQGLEWMGGIIPIYNTANYAQKFQGRVTLTADESTSTAYMELSSLRSEDTAVYYCARDVRNNWSVLRGARYYYYGMDVWGQGTTVTVSS VL: DIVMTQTPFSLSASVGDRVTVTCRASQDISNSLAWFQQKPGKAPKSLIYAASSLQSGVPTRFSGGGSGTDFTLTISSLQPEDFATFYCLQYDSFPPTFGGGTKVEI | 0.11 | 0.032 | – | –
MPV486 (antibody, V domains shown) VH: EVQLVESGGHLVQSGGSLRLSCAASGFTFSNYILNWVRQAPGKGLEWISYITGGSSAIYYADSVKGRFTISRDDAKNSLYLQMNNLRAEDTAVYYCARSHGYDSSGYYYYFAMDVWGQGTTVTVSS VL: QSVLTQPPSASGTPGQRVTISCSGSNSNIESNTVNWYQQIPGTAPKLLIYSDNRRPSGVPDRFSGSKSGTSASLAISGLQSEDEADYYCAAWDDSLIGYVFGTGTKVTV | 0.062 | 0.51 | – | –
MPV485 (antibody, V domains shown) V domain 1: EVQLQEPGPGLVKPSETLSLTCTVSGGSISSTNSFWGWVRQPPGKGLEWIGSIYYSGTTYYNSSLKSRVTISVDTSKNQFSLRLSSVTAADTAVYYCARQGLTSSWYDGSGLDVWG V domain 2: SYELTQPPSVSVSPGQTASITCSGDKLGNKYACWYQQRPGQSPVLVIYQDTKRPSGIPERFSGSNSGNTATLTISGTQAMDEADYYCQAWDSNTVVFGGGTKLTVL | 2.6 | 0.091 | ≥ 20 | –
MPV491 (antibody, V domains shown) VH: QVQLQESGPGLVKSSQTLSLTCTVSGGSISSVTSHWTWIRQHPGKGLEWIGYIFSSGTTYYSPSLRSRLTMSVDTSKNQFSLQLSSVTAADTAMYYCARGIYCGDSCYKGTDYWGRGTLVTVSS VL: IRLMTQTPVTLPVTPGEPASISCRSSQSLLHSNGYNYLDWYLQKPGQSPQLLIYRGSTRASGVPDRFSGSGSGTEFTLKISRVEAEDVGVYYCMQGLQTPYTFGQGTKLESR | 1.9 | 5.7 | – | –
MPV414 (antibody, V domains shown) VH: QVQLVQSGPEVKKPGSSVMVSCKTSGGNFNNFAISWVRQAPGQGLEWMGGIVPIFGTANYAQKSQDRVTITADPSSSTAYLQLSSLTSDDTAIYYCARDLGRSSNYYYYSVFESWGQGTLVTVSS VL: DIVMTQSPATLSLSPGERATLSCRASQSVGDKLAWYQQKPGQAPRLLIYGASTRATDIPARFSGSGSGTEFTLTVSSLQPEDFAVYYCQQYENWPPITFGQGTRLEIK | 0.59 | 0.044 | – | –
MPV477 (antibody, V domains shown) VH: EVQLVQSGAEVKKPGASVEVSCKTSGYTFTDYYLHWVRQAPGQGLEWMGWINPRSGGTKYGQKFQGRVTMTRDTSISTAYMDLRGLRSDDTAVYYCARAPLLTVYAVAHRSGENRFDPWGQGTVTVSS VL: QPPSLSGAPGQTVTISCTGSGSNIGAGYDVNWYQCLPGTAPKLLMFDNSNRPSGVPDRFSGSRSGASASLAITGLQAEDEADYYCQSYDSGLSGWVFGGGTKLTVL | 2.9 | 0.054 | ≥ 20 | –
